Laboratory results reported in publication PMC4535883, “A Single-Strand Annealing Protein Clamps DNA to Detect and Secure Homology”.

Experiments:
[1] = target: T1, Redβ (single-strand annealing protein) (bacteriophage lambda, UniProt P03698 1-261); assay: CD; filament formed by Redβ annealing; CD shift at 210-220 nm; Buffer composition not in the material; optical tweezers at 29.2 °C; settings: protein: recombinant; tags: StrepII (stated for the purified protein used as western blot standard); blunt; strands annealed by Redβ
T1 sequence: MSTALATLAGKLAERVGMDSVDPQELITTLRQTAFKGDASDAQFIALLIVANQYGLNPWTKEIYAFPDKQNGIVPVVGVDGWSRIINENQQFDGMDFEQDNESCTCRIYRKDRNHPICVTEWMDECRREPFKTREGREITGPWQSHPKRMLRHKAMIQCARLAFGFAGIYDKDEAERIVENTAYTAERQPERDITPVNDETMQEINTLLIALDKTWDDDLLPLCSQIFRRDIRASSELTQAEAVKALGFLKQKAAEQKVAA

[2] = target: T1, Redβ (single-strand annealing protein); assay: optical tweezers; preassembled filament; unzipping forces >200 pN, step 10 ± 2 bp; Buffer composition not in the material; optical tweezers at 29.2 °C; settings: protein: recombinant; tags: StrepII (stated for the purified protein used as western blot standard); 123 bp duplex, ssDNA spacers on both sides
[3] = target: T1, Redβ (single-strand annealing protein); assay: FCCS; half of ssDNA bound; about 30% bound at 100 nM; Hill coefficient close to 1; Buffer composition not in the material; optical tweezers at 29.2 °C; settings: protein: recombinant; tags: StrepII (stated for the purified protein used as western blot standard); label: Atto 655 (5')
[4] = target: T1, Redβ (single-strand annealing protein); assay: FCS/FCCS; effective KEpstein for 30-b ssDNA, calculated as Kd/21; Buffer composition not in the material; optical tweezers at 29.2 °C; settings: protein: recombinant; tags: StrepII (stated for the purified protein used as western blot standard); label: Atto 655 (5')
[5] = target: T1, Redβ (single-strand annealing protein); assay: FCS/FCCS; per single binding site of Redβ monomer; global fit of isodesmic growth model; Buffer composition not in the material; optical tweezers at 29.2 °C; settings: protein: recombinant; tags: StrepII (stated for the purified protein used as western blot standard); label: Atto 655 (5')
[6] = target: T1, Redβ (single-strand annealing protein); assay: optical tweezers; preassembled filament, 750 nM Redβ; >20% of traces >100 pN; Buffer composition not in the material; optical tweezers at 29.2 °C; settings: protein: recombinant; tags: StrepII (stated for the purified protein used as western blot standard); 25 bp duplex, ssDNA spacers on both sides

B1: CD 44-mer pair ssDNACD(1)+(2) (dsDNA)
DNA 1: GTAGAGTATAAGCACAGAGAGGATAGAGAACAATGGAGCGGGTGT
DNA 2: ACACCCGCTCCATTGTTCTCTATCCTCTCTGTGCTTATACTCTAC
binding result [1]: binds

B2: 123 bp high-force unzipping linker (dsDNA)
DNA 1: TGTTTAGTATGAGTCGAAATTCTTACGGCGTGTCAGAGAGGCAATGGCTTGACTTGTGGTGGATCACAGTTTGTGAGTAACGGCAAGATGCGGTAAACACTGTAATGCGAGCTTCATTGACTCGGCTTAAAGTTCCTGGT
DNA 2: TGACAGGAAACAGCACGCCAACCAGGAACTTTAAGCCGAGTCAATGAAGCTCGCATTACAGTGTTTACCGCATCTTGCCGTTACTCACAAACTGTGATCCACCACAAGTCAAGCCATTGCCTCTCTGACACGCCGTAAGAATTCGATAGGCAGCAGATTCTCTTTTCACCTTC
modifications: 5' phosphate on overhang A
binding result [2]: binds

ATGCCTCTCACTCGTCATCTTGTTTAGTAT (ssDNA) [ssDNA FCS 30 b]
apparent K (half saturation) [3]: ~300 nM | Kd [4]: ~0.24 µM | Kd [5]: 5 ± 0.2 µM

B3: 25 bp high-force unzipping linker (dsDNA)
DNA 1: TGTTTAGTATGAGTCGAAATTCTTACGGCGTGTCAGAGAGGC
DNA 2: TGACAGGAAACAGCACGCCAGCCTCTCTGACACGCCGTAAGAATTCGATAGGCAGCAGATTCTCTTTTCACCTTC
modifications: 5' phosphate on overhang A
binding result [6]: binds
